Data as given in the supplement of paper PMC10567573.

B1: C1orf55 (parent)
chain: FTSPDYQQQCHEMAERLEDSVLKG
B2: HSP90AB1 (parent)
chain: QVANSAFVERVRKRGFEVVYMTEP

Variants of: B1
Assay: protein stability index of a GFP-peptide fusion (GPS, HEK-293T) (PSI 1-6); higher = more stable
Conditions: c terminus: a fixed tail appended
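Further: lentivirally expressed fusions sorted by FACS into six bins by GFP to DsRed ratio, PSI derived from sequencing read proportions per bin multiplied by bin number.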

Variant	protein stability index
FTSPVYQQQCHEMAERLEDSVLKG	1.86
FTGPDYQQQCHEMAERLEDSVLKG	1.76
FTRPDYQQQCHEMAERLEDSVLKG	2.54
FTVPDYQQQCHEMAERLEDSVLKG	3.92
FTFPDYQQQCHEMAERLEDSVLKG	3.06
FTAPDYQQQCHEMAERLEDSVLKG	2.89
FTPPDYQQQCHEMAERLEDSVLKG	3.61
FTWPDYQQQCHEMAERLEDSVLKG	2.24
FTHPDYQQQCHEMAERLEDSVLKG	3.34
FTEPDYQQQCHEMAERLEDSVLKG	4.12
FTYPDYQQQCHEMAERLEDSVLKG	3.13
FTLPDYQQQCHEMAERLEDSVLKG	3.23
FTKPDYQQQCHEMAERLEDSVLKG	3.47
FTTPDYQQQCHEMAERLEDSVLKG	2.52
FTMPDYQQQCHEMAERLEDSVLKG	2.96
FTDPDYQQQCHEMAERLEDSVLKG	3.25
FTIPDYQQQCHEMAERLEDSVLKG	3.73
FTCPDYQQQCHEMAERLEDSVLKG	2.83
FTNPDYQQQCHEMAERLEDSVLKG	2.75
FTQPDYQQQCHEMAERLEDSVLKG	3.1
FTSPDYEQQCHEMAERLEDSVLKG	3.92
FTSPDYLQQCHEMAERLEDSVLKG	2.13
FTSPDYFQQCHEMAERLEDSVLKG	3.33
FTSPDYKQQCHEMAERLEDSVLKG	2.07
FTSPDYDQQCHEMAERLEDSVLKG	4.18
FTSPDYAQQCHEMAERLEDSVLKG	1.12
FTSPDYCQQCHEMAERLEDSVLKG	1.68
FTSPDYGQQCHEMAERLEDSVLKG	2.05
FTSPDYHQQCHEMAERLEDSVLKG	2.14
FTSPDYIQQCHEMAERLEDSVLKG	1.81

Variants of: B2
Assay: as above
Conditions: c terminus: a fixed tail appended

Variant	protein stability index
QVANSAFVERVRKRGFEVVYMVEP	1.63
QVANSAFVERVRKRGFEVVYMYEP	1.95
QVANSAFVERVRKRGFEVVYMQEP	2.54
QVANSYFVERVRKRGFEVVYMTEP	1.55
QVANSKFVERVRKRGFEVVYMTEP	2.32
QVANSIFVERVRKRGFEVVYMTEP	1.68
QVANSEFVERVRKRGFEVVYMTEP	2.86
QVANSWFVERVRKRGFEVVYMTEP	1.55
QVANFAFVERVRKRGFEVVYMTEP	1.76
QVANPAFVERVRKRGFEVVYMTEP	2.44
CVANSAFVERVRKRGFEVVYMTEP	1.57
NVANSAFVERVRKRGFEVVYMTEP	2.11
LVANSAFVERVRKRGFEVVYMTEP	2.27
QVANSAFVKRVRKRGFEVVYMTEP	2.26
QVANSAFVERVRQRGFEVVYMTEP	2.2
QVANSAFVERVRGRGFEVVYMTEP	1.34
QVANSAFVERVRTRGFEVVYMTEP	2.35
QVANSAFVERVRHRGFEVVYMTEP	1.95
QVANSAFVERVRKRGVEVVYMTEP	2.64
QVANSAFVERVRKRGDEVVYMTEP	4.16
QVANSAFVERVRKRGMEVVYMTEP	2.73
QVANSAFVERVRKRGNEVVYMTEP	3.3

Variant	protein stability index
QVANSAFVERVRKRGFEVRYMTEP	2.57
QVANSAFVERVRKRGFEVTYMTEP	2.93
QVANSAFVERVRKRGFEVNYMTEP	3.15
QVANSAFVERVRKRGFEVVYMTLP	1.16
QVANSAFVERVRKRGFEVVYMTNP	1.83
QVANSAFVERVRKRGFEVVYMTGP	1.78
QVANSAFVERVRKRGFEVVYMTDP	2.81
QVTNSAFVERVRKRGFEVVYMTEP	2.93
QVYNSAFVERVRKRGFEVVYMTEP	2.35
QVFNSAFVERVRKRGFEVVYMTEP	1.87
QRANSAFVERVRKRGFEVVYMTEP	2.6
QIANSAFVERVRKRGFEVVYMTEP	2.52
QAANSAFVERVRKRGFEVVYMTEP	2.87
QVANSAFRERVRKRGFEVVYMTEP	2.07
QVANSAFTERVRKRGFEVVYMTEP	2.52
QVANSAFVERVRKRTFEVVYMTEP	2.72
QVANSAFVERVRKRDFEVVYMTEP	3.3
QVANSAFVERVRKRRFEVVYMTEP	1.98
QVANSAFVERVRKRFFEVVYMTEP	2.21
QVANSAFVEHVRKRGFEVVYMTEP	2.33
QVANSAFVERVRKRGFNVVYMTEP	2.32
QVANSAFVERVRKRGFDVVYMTEP	2

Variant	protein stability index
QVANSAFVERVRKRGFTVVYMTEP	1.87
QVANSAFVERVRKCGFEVVYMTEP	1.36
QVANSAFVERVRKPGFEVVYMTEP	2.51
QVANSAFVERVRKRGFEVVYMTEC	2.2
QVANSAFVERVRKRGFEVVYMTEG	2.42
QVANSAFVERVRKRGFEVVYMTEM	2.14
QVANSAFVERVRKRGFEVVYMTEE	3.13
QVANSAFVERVRKRGFEVVYMTET	2.48
QVANSAFVERVRKRGFEFVYMTEP	1.85
QVANSAFVERVRKRGFEVVLMTEP	2.22
QVANSAFVERVRKRGFEVVQMTEP	3.41
QVANSAFVERVRKRGFEVVAMTEP	2.62
QVAASAFVERVRKRGFEVVYMTEP	2.02
QVAHSAFVERVRKRGFEVVYMTEP	2.6
QVATSAFVERVRKRGFEVVYMTEP	1.78
QVANSAFVERVRKRGFEVVYRTEP	3.33
QVANSAFVERVRKRGFEVVYQTEP	3.1
QVANSAFVERVFKRGFEVVYMTEP	2.13
QVANSAFVERVAKRGFEVVYMTEP	2.18
QVANSAFVERVGKRGFEVVYMTEP	2.59
